Test results published in patent publication US20250066503A1, “CELL INJURY INDUCING THERAPEUTIC DRUG FOR USE IN CANCER THERAPY” (CHUGAI SEIYAKU KABUSHIKI KAISHA, priority 2016, published 2025).
Residue numbers refer to the chain shown, from its start. Blank lines part the entries; values can stand above or below the binder they belong to.

Molecular target: T1, soluble human CD3 epsilon chain (human, UniProt P07766 23-126)
T1 construct: also called CD3ε
Experiment: SPR

T1 sequence (P07766 23-126 limits assumed): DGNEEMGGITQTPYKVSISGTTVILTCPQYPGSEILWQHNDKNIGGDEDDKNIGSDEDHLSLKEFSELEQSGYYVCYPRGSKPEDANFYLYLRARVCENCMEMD

Kd: 68.5 nM
B1: TR01H019-E22Hh/none-Hi-Kn010G3/L0000-k0 (antibody, V domains shown)
VH: QVQLVESGGGLVQPGRSLRLSCAASGFTFSNAWMHWVRQAPGKGLEWVAQIKGKSQNYATYYAESVKGRFTISRADSKNSIYLQMNSLKTEDTAVYYCRYVHYSASYGVDIWGQGTTVTVSS
VL: DIVMTQSPLSLPVTPGEPASISCRSSQSLVHSNRNTYLHWYQQKPGQAPRLLIYKVSNRFSGVPDRFSGSGSGTDFTLKISRVEAEDVGVYYCGQGTQVPYTFGQGTKLEIKR
notes: one-arm

Kd: 4.16 nM
B2: TR01H040-E22Hh/none-Hi-Kn010G3/L0208-k0 (antibody, V domains shown)
VH: B1 VH with G53D, I111A
VL: B1 VL with L29P, S61W, G94Y
notes: one-arm

Kd: 36 nM
B3: TR01H040-E22Hh/none-Hi-Kn010G3/L0000-k0 (antibody, V domains shown)
VH: B1 VH with G53D, I111A
VL: B1 VL
notes: one-arm

Kd: 31.6 nM
B4: TR01H041-E22Hh/none-Hi-Kn010G3/L0000-k0 (antibody, V domains shown)
VH: B1 VH with G53D, I111Y
VL: B1 VL
notes: one-arm

Kd: 48 nM
B5: TR01H028-E22Hh/none-Hi-Kn010G3/L0000-k0 (antibody, V domains shown)
VH: B1 VH with L11V, R16G, G53S
VL: B1 VL
notes: one-arm

Kd: 26.1 nM
B6: TR01H039-E22Hh/none-Hi-Kn010G3/L0000-k0 (antibody, V domains shown)
VH: B1 VH with G53D
VL: B1 VL
notes: one-arm

Kd: 79.4 nM
B7: TR01H023-E22Hh/none-Hi-Kn010G3/L0000-k0 (antibody, V domains shown)
VH: B1 VH with R16G
VL: B1 VL
notes: one-arm

Kd: 67.9 nM
B8: TR01H049-E22Hh/none-Hi-Kn010G3/L0000-k0 (antibody, V domains shown)
VH: B1 VH with G53D, A75D, I111A
VL: B1 VL
notes: one-arm

Kd: 29.1 nM
B9: TR01H051-E22Hh/none-Hi-Kn010G3/L0000-k0 (antibody, V domains shown)
VH: B1 VH with G53D, Q56N, I81L
VL: B1 VL
notes: one-arm

Kd: 75.8 nM
B10: TR01H022-E22Hh/none-Hi-Kn010G3/L0000-k0 (antibody, V domains shown)
VH: B1 VH with R16G, E64P
VL: B1 VL
notes: one-arm

Kd: 65.4 nM
B11: TR01H030-E22Hh/none-Hi-Kn010G3/L0000-k0 (antibody)
VH: B1 VH with L11V, Q56N
light: DIVMTQSPLSLPVTPGEPASISCRSSQSLVHSNRNTYLHWYQQKPGQAPRLLIYKVSNRFSGVPDRFSGSGSGTDFTLKISRVEAEDVGVYYCGQGTQVPYTFGQGTKLEIKRTVAAPSVFIFPPSDEQLKSGTASVVCLLNNFYPREAKVQWKVDNALQSGNSQESVTEQDSKDSTYSLSSTLTLSKADYEKHKVYACEVTHQGLSSPVTKSFNRGEC
notes: one-arm

Kd: 28.1 nM
B12: TR01H040-E22Hh/none-Hi-Kn010G3/L0201-k0 (antibody, V domains shown)
VH: B1 VH with G53D, I111A
VL: B1 VL with S28P, L29P
notes: one-arm

Kd: 64.8 nM
B13: TR01H020-E22Hh/none-Hi-Kn010G3/L0000-k0 (antibody, V domains shown)
VH: B1 VH with Q56N, E64P
VL: B1 VL
notes: one-arm

Kd: 34.8 nM
B14: TR01H040-E22Hh/none-Hi-Kn010G3/L0011-k0 (antibody, V domains shown)
VH: B1 VH with G53D, I111A
VL: B1 VL with S28P
notes: one-arm

Kd: 2.9 nM
B15: TR01H040-E22Hh/none-Hi-Kn010G3/L0206-k0 (antibody, V domains shown)
VH: B1 VH with G53D, I111A
VL: B1 VL with L29P, G94Y
notes: one-arm

Kd: 108 nM
B16: TR01H024-E22Hh/none-Hi-Kn010G3/L0000-k0 (antibody, V domains shown)
VH: B1 VH with R16G, I111A
VL: B1 VL
notes: one-arm

Kd: 48.8 nM
B17: TR01H033-E22Hh/none-Hi-Kn010G3/L0000-k0 (antibody, V domains shown)
VH: B1 VH with G53S, I111Y
VL: B1 VL
notes: one-arm

Kd: 42.3 nM
B18: TR01H046-E22Hh/none-Hi-Kn010G3/L0000-k0 (antibody, V domains shown)
VH: B1 VH with A23S, G53D, I111Y
VL: B1 VL
notes: one-arm

Kd: 6.93 nM
B19: TR01H037-E22Hh/none-Hi-Kn010G3/L0000-k0 (antibody, V domains shown)
VH: B1 VH with H35P, Q56N
VL: B1 VL
notes: one-arm

Kd: 20.4 nM
B20: TR01H047-E22Hh/none-Hi-Kn010G3/L0000-k0 (antibody, V domains shown)
VH: B1 VH with G53D, Q56N, A75D
VL: B1 VL
notes: one-arm

Kd: 45.2 nM
B21: TR01H048-E22Hh/none-Hi-Kn010G3/L0000-k0 (antibody, V domains shown)
VH: B1 VH with G53D, A75D
VL: B1 VL
notes: one-arm

Kd: 51.2 nM
B22: TR01H026-E22Hh/none-Hi-Kn010G3/L0000-k0 (antibody, V domains shown)
VH: B1 VH with R16G, G53S
VL: B1 VL
notes: one-arm

Kd: 3.22 nM
B23: TR01H040-E22Hh/none-Hi-Kn010G3/L0211-k0 (antibody, V domains shown)
VH: B1 VH with G53D, I111A
VL: B1 VL with S28P, L29P, G94Y
notes: one-arm

Kd: 4.25 nM
B24: TR01H040-E22Hh/none-Hi-Kn010G3/L0209-k0 (antibody, V domains shown)
VH: B1 VH with G53D, I111A
VL: B1 VL with L29P, L38I, G94Y
notes: one-arm

Kd: 46.5 nM
B25: TR01H040-E22Hh/none-Hi-Kn010G3/L0222-k0 (antibody, V domains shown)
VH: B1 VH with G53D, I111A
VL: B1 VL with L29P, L38I, H39Q, G94Y
notes: one-arm

Kd: 67 nM
B26: TR01H029-E22Hh/none-Hi-Kn010G3/L0000-k0 (antibody, V domains shown)
VH: B1 VH with A23S, Q56N
VL: B1 VL
notes: one-arm

Kd: 57.3 nM
B27: TR01H032-E22Hh/none-Hi-Kn010G3/L0000-k0 (antibody, V domains shown)
VH: B1 VH with G53S, I111A
VL: B1 VL
notes: one-arm

Kd: 62.7 nM
B28: TR01H052-E22Hh/none-Hi-Kn010G3/L0000-k0 (antibody, V domains shown)
VH: B1 VH with G53D, I81L
VL: B1 VL
notes: one-arm

Kd: 75.5 nM
B29: TR01H031-E22Hh/none-Hi-Kn010G3/L0000-k0 (antibody)
VH: B1 VH with L11V, R16G, Q56N
light: B11 light
notes: one-arm

Kd: 52.2 nM
B30: TR01H045-E22Hh/none-Hi-Kn010G3/L0000-k0 (antibody, V domains shown)
VH: B1 VH with A23S, G53D, I111A
VL: B1 VL
notes: one-arm

Kd: 82.3 nM
B31: TR01H053-E22Hh/none-Hi-Kn010G3/L0000-k0 (antibody, V domains shown)
VH: B1 VH with G53D, I81L, I111A
VL: B1 VL
notes: one-arm

Kd: 35.2 nM
B32: TR01H044-E22Hh/none-Hi-Kn010G3/L0000-k0 (antibody, V domains shown)
VH: B1 VH with A23S, G53D
VL: B1 VL
notes: one-arm

Kd: 12.4 nM
B33: TR01H038-E22Hh/none-Hi-Kn010G3/L0000-k0 (antibody, V domains shown)
VH: B1 VH with G53D, Q56N
VL: B1 VL
notes: one-arm

Kd: 57.6 nM
B34: TR01H050-E22Hh/none-Hi-Kn010G3/L0000-k0 (antibody, V domains shown)
VH: B1 VH with G53D, A75D, I111Y
VL: B1 VL
notes: one-arm

Kd: 44.8 nM
B35: TR01H042-E22Hh/none-Hi-Kn010G3/L0000-k0 (antibody, V domains shown)
VH: B1 VH with L11V, R16G, G53D, I111A
VL: B1 VL
notes: one-arm

Kd: 22.1 nM
B36: TR01H040-E22Hh/none-Hi-Kn010G3/L0204-k0 (antibody, V domains shown)
VH: B1 VH with G53D, I111A
VL: B1 VL with L29P, S61R
notes: one-arm

Kd: 15.2 nM
B37: TR01H043-E22Hh/none-Hi-Kn010G3/L0000-k0 (antibody, V domains shown)
VH: B1 VH with A23S, G53D, Q56N
VL: B1 VL
notes: one-arm

Kd: 84.9 nM
B38: TR01H035-E22Hh/none-Hi-Kn010G3/L0000-k0 (antibody, V domains shown)
VH: B1 VH with I111Y
VL: B1 VL
notes: one-arm

Kd: 38.6 nM
B39: TR01H025-E22Hh/none-Hi-Kn010G3/L0000-k0 (antibody, V domains shown)
VH: B1 VH with G53S
VL: B1 VL
notes: one-arm

Kd: 32.4 nM
B40: TR01H040-E22Hh/none-Hi-Kn010G3/L0203-k0 (antibody, V domains shown)
VH: B1 VH with G53D, I111A
VL: B1 VL with L29P, L38I
notes: one-arm

Kd: 38.8 nM
B41: TR01H055-E22Hh/none-Hi-Kn010G3/L0000-k0 (antibody, V domains shown)
VH: B1 VH with G53D, Q56N, A75D, I81L
VL: B1 VL
notes: one-arm

Kd: 2.17 nM
B42: TR01H040-E22Hh/none-Hi-Kn010G3/L0212-k0 (antibody, V domains shown)
VH: B1 VH with G53D, I111A
VL: B1 VL with S25P, L29P, G94Y
notes: one-arm

Kd: 65 nM
B43: TR01H036-E22Hh/none-Hi-Kn010G3/L0000-k0 (antibody, V domains shown)
VH: B1 VH with Q56N, I111Y
VL: B1 VL
notes: one-arm

Kd: 91.1 nM
B44: TR01H034-E22Hh/none-Hi-Kn010G3/L0000-k0 (antibody, V domains shown)
VH: B1 VH with I111A
VL: B1 VL
notes: one-arm

Kd: 69.5 nM
B45: TR01H027-E22Hh/none-Hi-Kn010G3/L0000-k0 (antibody, V domains shown)
VH: B1 VH with R16G, G53S, I111A
VL: B1 VL
notes: one-arm

Kd: 77.9 nM
B46: TR01H054-E22Hh/none-Hi-Kn010G3/L0000-k0 (antibody, V domains shown)
VH: B1 VH with G53D, I81L, I111Y
VL: B1 VL
notes: one-arm

Kd: 80.5 nM
B47: TR01H021-E22Hh/none-Hi-Kn010G3/L0000-k0 (antibody, V domains shown)
VH: B1 VH with Q56N, I111A
VL: B1 VL
notes: one-arm
